Source: US20250163149A1, “ANTI-RAGE ANTIBODY” (Swansea University, priority 2022, published 2025)

Tests used:
RAGE protein on SKOV3 = molecular target: T1, RAGE protein on SKOV3 (Homo sapiens, UniProt Q15109); experiment: Immunofluorescent staining of RAGE basal expression on SKOV3 cells; assay type: cell-based; settings: primary antibody 4 μg/ml
T1 construct: RAGE protein expressed on the extracellular membrane of cancer cells in its native conformation; endogenous in cells; host or cells: SKOV3 (ECACC)
T1 sequence (Q15109 23-404): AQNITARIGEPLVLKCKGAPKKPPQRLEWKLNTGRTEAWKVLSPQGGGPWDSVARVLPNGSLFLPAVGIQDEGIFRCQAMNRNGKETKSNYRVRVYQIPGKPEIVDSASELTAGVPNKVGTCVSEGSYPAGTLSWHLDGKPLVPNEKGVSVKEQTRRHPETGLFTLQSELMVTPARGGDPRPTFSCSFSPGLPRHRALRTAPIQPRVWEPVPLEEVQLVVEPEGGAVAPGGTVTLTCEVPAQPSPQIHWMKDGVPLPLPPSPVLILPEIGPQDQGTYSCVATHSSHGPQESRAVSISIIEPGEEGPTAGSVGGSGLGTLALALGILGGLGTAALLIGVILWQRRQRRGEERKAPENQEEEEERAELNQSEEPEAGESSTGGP
Method: To screen binding of α-RAGE antibodies by immunofluorescence, 1.5×10^4 SKOV3 cells/well (obtained from the European Collection of Authenticated Cell Cultures, ECACC, Public Health England, UK) were seeded in 8-well chamber slides (Ibidi) in 300 μl of stripped medium and cultured for 48 h in a humidified, 5% CO2 in air atmosphere incubator at 37° C. After culture, cells were fixed with 4% paraformaldehyde (Sigma) for 20 minutes, permeabilized with 0.1% Triton X-100 (Sigma) for 10 minutes at 4° C. and blocked with 3% BSA in PBS for 1 h. Primary antibodies diluted at 4 μg/ml in 3% BSA-PBS were incubated overnight at 4° C., followed by 1 h incubation with Alexa-488 secondary antibody. Cells were washed with PBS extensively between all steps, counterstained before imaging with Hoechst (Life Technologies™) and imaged using a LSM710 confocal fluorescence microscopy system (Zeiss, UK).

RAGE = RAGE (Homo sapiens, UniProt Q15109); experiment: Binding target blocking assay by immunofluorescence on HEC-1A cells; assay type: cell-based; parameters: endogenous in cells; host or cells: HEC-1A (ECACC); settings: then antibody at 4 μg/ml
Chain of RAGE (Q15109 23-404): as above
Method: To proof that HA9 shares similar binding epitope as other α-RAGE antibodies, an immunofluorescence approach was used. For this purpose, 1.5×10^4 HEC1A cells/well (obtained from the European Collection of Authenticated Cell Cultures, ECACC, Public Health England, UK) were seeded in 8-well chamber slides (Ibidi) in 300 μl of stripped medium and cultured for 24 h in a humidified, 5% CO2 in air atmosphere incubator at 37° C. After culture, cells were fixed with 4% paraformaldehyde (Sigma) for 20 minutes, permeabilized with 0.1% Triton X-100 (Sigma) for 10 minutes at 4° C. and blocked with 3% BSA in PBS for 1 h. Cells were then pre-incubated with a primary antibody against RAGE at a concentration in excess (20 μg/ml in 3% BSA in PBS for 1 h) to block the specific epitope they bind, before cells were incubated with the α-RAGE antibody of interest at 4 μg/ml in 3% BSA-PBS overnight at 4° C. This was followed by 1 h incubation with Alexa-fluorophore-conjugated secondary antibodies. Cells were washed with PBS extensively between all steps, counterstained before imaging with Hoechst (Life Technologies™) and imaged using a LSM710 confocal fluorescence microscopy system (Zeiss, UK). The mean intensity of fluorescence was obtained using imageJ by measuring the integrated density per imaged field, normalised by the number of cells in the respective field and obtaining the mean from >10 fields obtained per condition. A decrease in fluorescence in the pre-blocked condition compared with the not-pre-blocked condition means both antibodies share similar epitope of binding on the same protein.

B1: hHA9: chimeric humanised format of anti-RAGE antibody clone HA9 (antibody, V domains shown)
VH: EVKLVETGGGLVQPGRPMKLSCVASGFTLSDHWMNWVRQSPEKGLEWVAQIRNRPYKFEKYYSDSVKGRFTISRDDSKNSVYLQMNNLRAEDMGIYYCSSYRYGLAYWGQGTLVTVST
VL: DNLLTQSPAILSVSPGERVSFSCRASQTIDTRIHWYQQRKNGSPRLLIRYISESLSGIPSRFSGSGSGTEFTLTINSVESEDIADYYCQQTESWPITFGSGTKLEIK
- immunofluorescent signal (basal RAGE staining) (RAGE protein on SKOV3; compared with other clones and AB11451): highest detection of RAGE basal expression
- immunofluorescent signal (basal RAGE staining) (RAGE protein on SKOV3; compared with other clones and AB11451, listed as chimeric HA9): most intense immunofluorescent signal
- immunofluorescent signal (basal RAGE staining) (RAGE protein on SKOV3; compared with other clones and AB11451, listed as chimeric-HA9): higher intensity
- staining after Abcam antibody pre-blocking (RAGE; Abcam antibody 20 μg/ml pre-incubation): did not result in a decrease
- staining after N16 pre-blocking (RAGE; N16 20 μg/ml pre-incubation): statistically significant decrease
